Experimental data from paper PMC7305236.

Tests used:
[1] = molecular target: kappa opioid receptor (KOR) C-terminally tagged with SmBiT (UniProt P41145)
[2] = molecular target: mu opioid receptor (MOR) C-terminally tagged with SmBiT (UniProt P35372)
[3] = molecular target: ACKR3 C-terminally tagged with SmBiT (human) (UniProt P25106)
[4] = molecular target: delta opioid receptor (DOR) C-terminally tagged with SmBiT (UniProt P41143)
[5] = molecular target: ACKR3 C-terminally tagged with SmBiT (human) (UniProt P25106); remark: listed apart in the source
[6] = molecular target: atypical chemokine receptor ACKR3 (formerly CXCR7) (human) (UniProt P25106)
mouse ACKR3 (mouse) = mouse ACKR3 (mouse) (UniProt P56485)
mouse ACKR3 (mouse), sequence (P56485 whole entry): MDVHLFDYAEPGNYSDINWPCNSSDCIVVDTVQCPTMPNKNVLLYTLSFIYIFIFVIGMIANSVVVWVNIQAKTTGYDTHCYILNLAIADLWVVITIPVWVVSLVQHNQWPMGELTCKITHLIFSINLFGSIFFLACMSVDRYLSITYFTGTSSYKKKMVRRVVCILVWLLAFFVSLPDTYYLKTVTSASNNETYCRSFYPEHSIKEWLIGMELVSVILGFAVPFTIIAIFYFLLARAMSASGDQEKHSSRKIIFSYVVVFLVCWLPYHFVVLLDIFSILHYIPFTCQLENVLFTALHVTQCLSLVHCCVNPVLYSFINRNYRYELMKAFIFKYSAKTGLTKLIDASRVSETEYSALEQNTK

ACKR3 C-terminally tagged with SmBiT (human), sequence (P25106 whole entry): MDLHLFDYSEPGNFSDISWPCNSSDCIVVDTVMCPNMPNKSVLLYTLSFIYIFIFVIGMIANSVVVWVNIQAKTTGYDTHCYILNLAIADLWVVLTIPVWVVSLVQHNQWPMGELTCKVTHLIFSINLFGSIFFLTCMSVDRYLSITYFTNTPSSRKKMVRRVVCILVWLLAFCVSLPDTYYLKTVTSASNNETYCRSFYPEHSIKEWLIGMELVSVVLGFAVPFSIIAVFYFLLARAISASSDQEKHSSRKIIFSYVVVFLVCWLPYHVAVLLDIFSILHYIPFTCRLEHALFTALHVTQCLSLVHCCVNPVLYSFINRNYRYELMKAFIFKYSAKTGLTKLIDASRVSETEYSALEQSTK
mCXCL12, sequence (P40224 22-93): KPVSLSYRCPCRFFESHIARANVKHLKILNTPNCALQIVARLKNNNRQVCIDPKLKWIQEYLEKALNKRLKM
CXCL12, sequence (P48061 22-93): as the sequence (P40224 22-93) above, with I18V, L70F counted along it
atypical chemokine receptor ACKR3 (formerly CXCR7) (human), sequence (P25106 whole entry): as the sequence (P25106 whole entry) above

Row | Substance | β-arrestin-1 recruitment (NanoBiT, U87 cells): EC50 [1] [nM] | β-arrestin-1 recruitment (NanoBiT, U87 cells): EC50 [2] [nM] | β-arrestin-1 recruitment (NanoBiT, U87 cells): EC50 [3] [nM] | β-arrestin-1 recruitment (NanoBiT, U87 cells): EC50 [4] [nM] | further results
1 | Adrenorphin (peptide) | 43.5 | 41.6 | 56.5 | 157 | 
2 | Big Dynorphin (peptide) | 19.1 | 652 | 108 | 529 | 
3 | CXCL12 (from UniProt P48061 22-93) (ligand) |  |  |  |  | β-arrestin recruitment to ACKR3 (Fig. 4b): EC50 [5]: 1.2 nM
4 | Dynorphin A 1–13 (peptide) | 2.5 | 2000 | 61.9 | 319 | 
5 | Dynorphin A 2–13 (peptide) |  |  | 6000 |  | 
6 | Dynorphin A 2–17 (peptide) |  |  | 2000 |  | 
7 | Dynorphin A (peptide) |  | 1500 | 110 | 240 | 
8 | Dynorphin B (peptide) | 10.9 | 2000 | 727 | 158 | 
9 | Endomorphin-2 (peptide) |  | 231 |  |  | 
10 | Leumorphin (peptide) | 21.4 |  | 1320 | 3000 | 
11 | Nociceptin 1–13 (peptide) |  |  | 10000 |  | 
12 | [Phe1Ψ(CH2-NH)-gly2]nociceptin-(1–13)-NH2 (peptide) |  |  | 2970 |  | 
13 | adrenorphin-derived peptide yggfmrrv (Daa) |  |  |  |  | Supplementary Table 4: EC50 of β-arrestin-1 recruitment to ACKR3, U87 cells [6]: > 10000 nM
14 | mCXCL12 (from UniProt P40224 22-93) (ligand) |  |  |  |  | Supplementary Table 6: EC50 of β-arrestin-1 recruitment to mACKR3, U87 cells (mouse ACKR3 (mouse)): 3.32 nM
15 | β-endorphin (peptide) |  |  |  | 441 | 
